Numbering of substitutions follows the chain as printed.
B1: CAN04 (murine) as listed in Table 3 (antibody, human IgG1, kappa, V domains shown)
VH: QVQLQQSGPELLKPGASVKISCKASGYAFSSSWMNWVKQRPGKGLEWIGRIYPGDGNTHYSGKFKGKATLTADKSSSIAYMQLSSLTSEDSAVYFCGEGYLDPMDYWGQGTSVTVSS
VL: DIQMTQTTSSLSASLGDRVTISCSASQGINNYLNWYQQKPDGTVKLLIHYTSGLHAGVPSRFSGSGSGTDYSLTISNLEPEDVATYYCQQYSILPWTFGGGTKLEIKR
notes: Whether the footnotes apply to the row labelled '(murine)' is not certain
B2: hCAN04 Variant 6 (antibody, human IgG1, kappa, V domains shown)
VH: QVQLVQSGAEVKKPGSSVKVSCKASGYAFTSSWMNWVRQAPGQGLEWMGRIYPGDGNTHYAQKFQGRVTLTADKSTSTAYMELSSLRSEDTAVYYCGEGYLDPMDYWGQGTLVTVSS
VL: DIQMTQSPSSLSASVGDRVTITCQASQGINNYLNWYQQKPGKAPKLLIHYTSGLHAGVPSRFSGSGSGTDYTLTISSLEPEDVATYYCQQYSILPWTFGGGTKVEIKR
notes: Human IgG1za / kappa, expressed in CHOK1SV cells; also called Var6; humanized variant 6 of CAN04
B3: hCAN04 Variant 1 (antibody, human IgG1, kappa, V domains shown)
VH: B2 VH with T30S
VL: B2 VL with Q24S, E79Q
notes: Human IgG1za / kappa, expressed in CHOK1SV cells; also called Var1; humanized variant 1 of CAN04
B4: hCAN04 Variant 2 (antibody, human IgG1, kappa, V domains shown)
VH: B2 VH
VL: B2 VL with Q24S, E79Q
notes: Human IgG1za / kappa, expressed in CHOK1SV cells; also called Var2; humanized variant 2 of CAN04
B5: hCAN04 Variant 3 (antibody, human IgG1, kappa, V domains shown)
VH: B2 VH with A28T, Q43K, N57Q
VL: B2 VL with Q24S, E79Q
notes: Human IgG1za / kappa, expressed in CHOK1SV cells; also called Var3; humanized variant 3 of CAN04
B6: hCAN04 Variant 4 (antibody, human IgG1, kappa, V domains shown)
VH: B2 VH with A28T, Q43K, N57Q, L70I
VL: B2 VL with Q24S, E79Q
notes: Human IgG1za / kappa, expressed in CHOK1SV cells; also called Var4; humanized variant 4 of CAN04
B7: hCAN04 Variant 5 (antibody, human IgG1, kappa, V domains shown)
VH: B2 VH with T30S
VL: B2 VL
notes: Human IgG1za / kappa, expressed in CHOK1SV cells; also called Var5; humanized variant 5 of CAN04
B8: hCAN04 Variant 7 (antibody, human IgG1, kappa, V domains shown)
VH: B2 VH with A28T, Q43K, N57Q
VL: B2 VL
notes: Human IgG1za / kappa, expressed in CHOK1SV cells; also called Var7; humanized variant 7 of CAN04
B9: hCAN04 Variant 8 (antibody, human IgG1, kappa, V domains shown)
VH: B2 VH with A28T, Q43K, N57Q, L70I
VL: B2 VL
notes: Human IgG1za / kappa, expressed in CHOK1SV cells; also called Var8; humanized variant 8 of CAN04
B10: hCAN04 Variant 9 (antibody, human IgG1, kappa, V domains shown)
VH: B2 VH with T30S
VL: B2 VL with Y71F
notes: Human IgG1za / kappa, expressed in CHOK1SV cells; also called Var9; humanized variant 9 of CAN04
B11: hCAN04 Variant 10 (antibody, human IgG1, kappa, V domains shown)
VH: B2 VH
VL: B2 VL with Y71F
notes: Human IgG1za / kappa, expressed in CHOK1SV cells; also called Var10; humanized variant 10 of CAN04
B12: hCAN04 Variant 11 (antibody, human IgG1, kappa, V domains shown)
VH: B2 VH with A28T, Q43K, N57Q
VL: B2 VL with Y71F
notes: Human IgG1za / kappa, expressed in CHOK1SV cells; also called Var11; humanized variant 11 of CAN04
B13: hCAN04 Variant 12 (antibody, human IgG1, kappa, V domains shown)
VH: B2 VH with A28T, Q43K, N57Q, L70I
VL: B2 VL with Y71F
notes: Human IgG1za / kappa, expressed in CHOK1SV cells; also called Var 12; humanized variant 12 of CAN04
B14: CAN04 (antibody, V domains shown)
VH: B1 VH
VL: B1 VL
notes: Murine-derived monoclonal IgG; It was PE-conjugated on primary cells and AF488-labelled for confocal microscopy; also called exemplary antibody of the invention

Columns and labels:
[1] = molecular target: T1, recombinant hIL1RAP 21-367 (human, UniProt Q9NPH3 21-367); test: indirect ELISA on coated hIL1RAP 21-367, three-fold dilutions from 3.5 nM
T1 construct: range 21-367; also called Rec hIL1RAP Domain123 (aa21-367); Domain123
Procedure: An indirect ELISA assay was performed. All samples were analysed in duplicate. Nunc-MaxiSorp 96 Micro Well™ Plates were coated with 100 ng of recombinant hIL1RAP 21-367 (100 μl/well) diluted in 0.01M PBS, pH 7.4, and incubated overnight at 4° C. Plates were washed with ELISA washing buffer (0.01M PBS, 0.05% Tween 20, pH 7.4) followed by a blocking step using 150 μl/well of ELISA blocking solution (PBS, 0.5% BSA, 0.05% Tween 20, pH 7.4). After 1 h incubation at room temperature (RT) on agitation the plates were washed again using ELISA washing buffer. Samples were diluted in three fold serial dilution (ranging from 1000 ng/ml to 0.5 ng/ml) in ELISA blocking solution and then transferred to the ELISA plate, 100 μl/well. Plates were incubated at RT for 1 h on agitation and then washed with ELISA washing solution. 100 μl/well of rabbit anti-mouse IgG conjugated to Alkaline Phosohatase (DAKO, 1:1000) was added and incubated 1 hour at RT on agitation. The plates were washed followed by addition of substrate (4-Nitrophenyl phosphatise disodium salt hexahydrate, SIGMA, 1 mg/ml), 100 μl/well. The plates were thereafter incubated at RT on agitation and absorbance at 405 nm measured consecutively for 30 min. Absorbance at 0 min was taken as background signal.
An indirect ELISA assay was performed as described above with the alteration that the samples were diluted in a three-fold serial dilution starting at 3.5 nM and run in replicates of four.

[2] = molecular target: T2, human IL1RAP (analyte of the Biacore study) (human, UniProt Q9NPH3 21-367, limits assumed); test: SPR (Biacore T200), antibody captured on anti-mouse IgG, analyte 100 nM, 25 C
T2 construct: The methods say only 'the analyte (100 nM)'; The result sentence names it human IL1RAP; also called IL1-RAP protein; the analyte
Procedure: Goat anti-mouse IgG was immobilized on a CM5 chip according to the technical manual of capture kit and standard operation principle of BIAcore T200 (Biacore Life Sciences, GE Healthcare Europe GmbH, Uppsala, Sweden).
The capture molecule surface was regenerated after each binding cycle using the manufacturer's recommended conditions.
After five cycles of start-up, each antibody (100 nM) was injected at a flow rate of 30 μl/min, for 120 s, at the start of the cycle; then the analyte (100 nM) was injected at a flow rate of 30 μl/min, for 120 s, followed by monitoring the dissociation phase for 300 s.

Row | Binder | Kd [1] | further results
1 | B1 | 0.088 nM | 
2 | B2 | 0.173 nM | 
3 | B3 | 0.125 nM | 
4 | B4 | 0.171 nM | 
5 | B5 | 0.45 nM | 
6 | B6 | 0.47 nM | 
7 | B7 | 0.135 nM | 
8 | B8 | 0.526 nM | 
9 | B9 | 0.402 nM | 
10 | B10 | 0.21 nM | 
11 | B11 | 0.301 nM | 
12 | B12 | 0.504 nM | 
13 | B13 | 0.62 nM | 
14 | B14 |  | Kd [2]: 0.11 nM; koff [2]: 4.72e-05 s⁻¹; kon [2]: 427000 M⁻¹ s⁻¹

From patent publication US20250340657A1 (CANTARGIA, published 2025)
